Measurements reported in IntAct's records for PubMed 29892012.

Legend:
bend5_human BEND5 = target: T1, bend5_human BEND5 (UniProt Q7L4P6)
T1 sequence: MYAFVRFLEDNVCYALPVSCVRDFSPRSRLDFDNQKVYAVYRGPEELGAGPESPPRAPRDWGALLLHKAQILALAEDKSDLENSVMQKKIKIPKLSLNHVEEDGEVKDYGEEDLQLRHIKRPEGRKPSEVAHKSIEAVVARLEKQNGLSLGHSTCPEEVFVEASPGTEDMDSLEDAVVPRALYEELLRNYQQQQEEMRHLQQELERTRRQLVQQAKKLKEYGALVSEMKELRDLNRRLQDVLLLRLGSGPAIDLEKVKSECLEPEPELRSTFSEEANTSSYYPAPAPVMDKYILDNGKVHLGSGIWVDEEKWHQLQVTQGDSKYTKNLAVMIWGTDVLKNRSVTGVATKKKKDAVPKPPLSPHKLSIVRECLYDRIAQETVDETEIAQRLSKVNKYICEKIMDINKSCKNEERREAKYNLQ

ar6p1_human ARL6IP1 = ar6p1_human ARL6IP1 (UniProt Q15041)
traf1_human TRAF1 = target: T2, traf1_human TRAF1 (UniProt Q13077)
T2 sequence: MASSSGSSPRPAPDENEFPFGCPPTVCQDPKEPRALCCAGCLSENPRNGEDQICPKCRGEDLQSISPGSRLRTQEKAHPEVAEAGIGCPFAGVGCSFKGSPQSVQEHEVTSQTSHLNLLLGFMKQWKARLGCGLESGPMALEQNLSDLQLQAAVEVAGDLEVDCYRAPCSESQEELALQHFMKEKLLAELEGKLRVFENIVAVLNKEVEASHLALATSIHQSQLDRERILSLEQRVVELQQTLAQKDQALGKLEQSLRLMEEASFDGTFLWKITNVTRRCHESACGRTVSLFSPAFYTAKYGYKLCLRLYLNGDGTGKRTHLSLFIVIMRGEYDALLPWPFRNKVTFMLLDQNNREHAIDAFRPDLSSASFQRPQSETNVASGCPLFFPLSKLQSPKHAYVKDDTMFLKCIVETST

nup62_human NUP62 = nup62_human NUP62 (UniProt P37198)
itf2_human TCF4 = itf2_human TCF4 (UniProt P15884)
prdx3_human PRDX3 = target: T3, prdx3_human PRDX3 (UniProt P30048)
T3 sequence: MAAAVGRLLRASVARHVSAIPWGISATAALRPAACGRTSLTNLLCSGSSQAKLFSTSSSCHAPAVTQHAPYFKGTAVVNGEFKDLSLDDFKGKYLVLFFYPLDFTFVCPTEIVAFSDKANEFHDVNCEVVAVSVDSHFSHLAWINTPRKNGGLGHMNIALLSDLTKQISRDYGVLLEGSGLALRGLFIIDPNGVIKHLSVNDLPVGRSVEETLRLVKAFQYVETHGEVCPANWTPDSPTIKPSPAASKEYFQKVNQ

traf2_human TRAF2 = target: T4, traf2_human TRAF2 (UniProt Q12933)
T4 sequence: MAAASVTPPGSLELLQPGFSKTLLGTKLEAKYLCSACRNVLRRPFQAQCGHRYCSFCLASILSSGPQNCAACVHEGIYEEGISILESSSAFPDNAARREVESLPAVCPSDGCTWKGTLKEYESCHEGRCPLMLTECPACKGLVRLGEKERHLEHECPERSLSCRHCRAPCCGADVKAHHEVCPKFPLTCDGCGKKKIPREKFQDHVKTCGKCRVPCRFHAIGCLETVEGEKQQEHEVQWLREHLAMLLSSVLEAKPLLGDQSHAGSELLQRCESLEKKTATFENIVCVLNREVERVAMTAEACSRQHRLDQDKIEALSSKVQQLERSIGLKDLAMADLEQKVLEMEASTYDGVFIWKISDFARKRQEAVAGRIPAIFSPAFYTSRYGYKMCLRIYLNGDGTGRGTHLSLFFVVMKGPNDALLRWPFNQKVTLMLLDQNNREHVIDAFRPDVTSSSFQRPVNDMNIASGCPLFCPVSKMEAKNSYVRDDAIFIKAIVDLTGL

dctd_human DCTD = target: T5, dctd_human DCTD (UniProt P32321)
T5 sequence: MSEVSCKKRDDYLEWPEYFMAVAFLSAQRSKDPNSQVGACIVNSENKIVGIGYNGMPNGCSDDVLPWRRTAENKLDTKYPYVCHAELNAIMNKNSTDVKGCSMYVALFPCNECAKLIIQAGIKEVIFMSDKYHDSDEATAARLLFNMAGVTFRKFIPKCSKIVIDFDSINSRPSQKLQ

txlna_human TXLNA = txlna_human TXLNA (UniProt P40222)
lonf1_human LONRF1 = target: T6, lonf1_human LONRF1 (UniProt Q17RB8)
T6 sequence: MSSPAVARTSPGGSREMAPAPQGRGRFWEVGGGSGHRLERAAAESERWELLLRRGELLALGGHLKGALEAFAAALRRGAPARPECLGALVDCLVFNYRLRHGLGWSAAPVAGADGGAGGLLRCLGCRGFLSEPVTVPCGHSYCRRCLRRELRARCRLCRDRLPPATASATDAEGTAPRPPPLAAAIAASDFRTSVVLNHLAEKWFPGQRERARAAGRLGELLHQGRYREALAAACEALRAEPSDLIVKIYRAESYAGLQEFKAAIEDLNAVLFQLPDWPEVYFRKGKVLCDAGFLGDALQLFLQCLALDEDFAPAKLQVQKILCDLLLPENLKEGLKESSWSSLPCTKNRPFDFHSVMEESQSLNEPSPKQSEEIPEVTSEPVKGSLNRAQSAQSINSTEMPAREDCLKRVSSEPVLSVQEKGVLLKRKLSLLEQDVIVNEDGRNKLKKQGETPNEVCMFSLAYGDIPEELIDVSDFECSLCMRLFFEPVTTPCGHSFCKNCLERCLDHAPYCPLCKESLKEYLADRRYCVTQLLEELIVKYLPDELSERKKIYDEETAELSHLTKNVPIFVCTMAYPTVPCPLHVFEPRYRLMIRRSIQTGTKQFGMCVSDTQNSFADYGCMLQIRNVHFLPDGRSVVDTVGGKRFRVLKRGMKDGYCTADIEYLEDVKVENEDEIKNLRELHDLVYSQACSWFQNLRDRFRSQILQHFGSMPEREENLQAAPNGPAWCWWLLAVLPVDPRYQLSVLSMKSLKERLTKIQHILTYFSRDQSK

Chain of ar6p1_human ARL6IP1 (Q15041 whole entry): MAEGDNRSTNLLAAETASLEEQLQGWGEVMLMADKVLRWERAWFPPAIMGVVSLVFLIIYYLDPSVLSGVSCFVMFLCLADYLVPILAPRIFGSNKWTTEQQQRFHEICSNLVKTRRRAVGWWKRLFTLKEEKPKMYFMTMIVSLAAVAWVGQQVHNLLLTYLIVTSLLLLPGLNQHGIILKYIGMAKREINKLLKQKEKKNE
Chain of itf2_human TCF4 (P15884 whole entry): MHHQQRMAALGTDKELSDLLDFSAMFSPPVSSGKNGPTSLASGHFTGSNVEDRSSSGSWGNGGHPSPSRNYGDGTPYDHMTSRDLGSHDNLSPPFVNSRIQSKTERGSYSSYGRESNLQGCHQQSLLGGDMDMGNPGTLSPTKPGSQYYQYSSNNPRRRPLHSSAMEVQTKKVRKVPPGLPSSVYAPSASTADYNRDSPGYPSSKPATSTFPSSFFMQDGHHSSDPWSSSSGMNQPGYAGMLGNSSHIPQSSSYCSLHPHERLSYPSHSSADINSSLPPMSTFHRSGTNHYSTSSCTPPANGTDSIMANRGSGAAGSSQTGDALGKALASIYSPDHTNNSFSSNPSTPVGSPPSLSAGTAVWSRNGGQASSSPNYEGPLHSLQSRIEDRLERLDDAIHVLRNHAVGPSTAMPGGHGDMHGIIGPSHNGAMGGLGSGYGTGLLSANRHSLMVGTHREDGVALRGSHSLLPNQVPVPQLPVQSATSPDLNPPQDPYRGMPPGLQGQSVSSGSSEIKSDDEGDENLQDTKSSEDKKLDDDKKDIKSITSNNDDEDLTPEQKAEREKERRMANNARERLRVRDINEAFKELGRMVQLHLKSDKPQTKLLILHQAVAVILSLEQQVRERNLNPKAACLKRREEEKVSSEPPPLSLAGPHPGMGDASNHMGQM
Chain of nup62_human NUP62 (P37198 whole entry): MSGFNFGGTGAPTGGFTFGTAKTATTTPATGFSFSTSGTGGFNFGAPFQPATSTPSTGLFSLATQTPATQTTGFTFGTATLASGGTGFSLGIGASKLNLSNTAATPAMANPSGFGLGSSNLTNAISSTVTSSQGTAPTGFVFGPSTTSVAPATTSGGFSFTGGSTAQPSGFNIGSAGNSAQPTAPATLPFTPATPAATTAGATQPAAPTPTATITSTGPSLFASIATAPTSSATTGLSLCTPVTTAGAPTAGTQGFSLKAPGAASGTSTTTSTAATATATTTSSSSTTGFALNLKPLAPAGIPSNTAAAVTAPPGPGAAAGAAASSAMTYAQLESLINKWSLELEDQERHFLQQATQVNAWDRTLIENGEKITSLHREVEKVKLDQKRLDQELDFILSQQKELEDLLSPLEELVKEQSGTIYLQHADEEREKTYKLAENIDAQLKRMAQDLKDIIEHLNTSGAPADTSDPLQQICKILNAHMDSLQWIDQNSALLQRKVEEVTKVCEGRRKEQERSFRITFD
Chain of txlna_human TXLNA (P40222 whole entry): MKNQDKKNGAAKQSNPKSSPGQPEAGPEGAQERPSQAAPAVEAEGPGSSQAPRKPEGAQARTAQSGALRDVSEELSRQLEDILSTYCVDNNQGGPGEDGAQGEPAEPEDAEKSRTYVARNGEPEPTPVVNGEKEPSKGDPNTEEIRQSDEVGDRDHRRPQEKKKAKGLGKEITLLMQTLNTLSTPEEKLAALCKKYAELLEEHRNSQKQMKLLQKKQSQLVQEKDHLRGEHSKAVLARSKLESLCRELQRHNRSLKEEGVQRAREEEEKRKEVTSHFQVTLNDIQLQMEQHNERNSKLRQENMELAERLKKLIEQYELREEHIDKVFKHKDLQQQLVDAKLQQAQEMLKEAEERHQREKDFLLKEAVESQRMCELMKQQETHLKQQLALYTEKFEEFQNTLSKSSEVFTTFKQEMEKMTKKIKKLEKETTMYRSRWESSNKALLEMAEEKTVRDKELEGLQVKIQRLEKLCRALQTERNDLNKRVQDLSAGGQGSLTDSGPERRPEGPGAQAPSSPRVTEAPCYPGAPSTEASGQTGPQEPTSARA

effect of a mutation on the interaction (bend5_human BEND5): with no effect | effect of a mutation on the interaction (ar6p1_human ARL6IP1): with no effect | effect of a mutation on the interaction (traf1_human TRAF1): with no effect | effect of a mutation on the interaction (nup62_human NUP62): disrupting interaction strength | effect of a mutation on the interaction (itf2_human TCF4): with no effect | effect of a mutation on the interaction (prdx3_human PRDX3): disrupting interaction strength | effect of a mutation on the interaction (traf2_human TRAF2): with no effect | effect of a mutation on the interaction (dctd_human DCTD): with no effect | effect of a mutation on the interaction (txlna_human TXLNA): with no effect | effect of a mutation on the interaction (lonf1_human LONRF1): with no effect
Substance: Golgi reassembly-stacking protein 2 (Homo sapiens) (from UniProt Q9H8Y8) L320R
